Assay: Phosphatase assay (Malachite Green) of purified UppP
Type: biochemical, E. coli
Settings: 100 μM Fpp as model substrate, 37° C., 0.2% DDM, pH 7.5
Protocol: UppP activity was determined by the Malachite Green assay using Phosphate Colorimetric Assay Kit purchased from BioVision. The enzymatic assay reaction mixture (200 μl) containing 50 mM Tris-HCl, pH 7.5, 150 mM NaCl, 0.2% DDM, 100 μM substrate (Fpp) and appropriately diluted purified UppP was incubated at 37° C. The reaction was quenched by adding 30 μl of Malachite Green Reagent and then the tubes were incubated for 30 min at room temperature. After incubation, the reaction mixture was transferred to 96-well plates and the released phosphate that reacted with Malachite Green was measured at 650 nm according to the reaction time course. The amounts of released phosphate were quantified relative to a phosphate standard curve.
For testing the phosphatase activity of UppP, assays were performed in the presence of various substrates using Malachite Green assay. Since the intended substrate, Upp, was difficult to synthesize and purify (Ghachi et al. Id.), we used farnesyl pyrophosphate (Fpp) as a model substrate. It was previously reported that another E. coli undecaprenyl pyrophosphate phosphatase, PgpB, which has no sequence homology with UppP, catalyzed the dephosphorylation of Upp with a relatively low efficiency compared to diacylglycerol pyrophosphate and farnesyl pyrophosphate lipid substrates. In our activity assay test, Fpp was a suitable substrate for UppP.

B1: UppP: E. coli integral membrane enzyme undecaprenyl pyrophosphate phosphatase purified from the HmBRI/D94N fusion expression system (protein, UniProt P60932 1-273, looked up)
Undecaprenyl-diphosphatase: MSDMHSLLIAAILGVVEGLTEFLPVSSTGHMIIVGHLLGFEGDTAKTFEVVIQLGSILAVVVMFWRRLFGLIGIHFGRPLQHEGESKGRLTLIHILLGMIPAVVLGLLFHDTIKSLFNPINVMYALVVGGLLLIAAECLKPKEPRAPGLDDMTYRQAFMIGCFQCLALWPGFSRSGATISGGMLMGVSRYAASEFSFLLAVPMMMGATALDLYKSWGFLTSGDIPMFAVGFITAFVVALIAIKTFLQLIKRISFIPFAIYRFIVAAAVYVVFF
time-dependent phosphatase activity (released phosphate): functional protein capable of releasing free phosphate
